Article PMC8809517, “Cofactor-independent RNA editing by a synthetic S-type PPR protein”
Numbering of substitutions follows the chain as printed.

T1: GFP-9S library array, motif 4 ND N98P;D124N (synthetic construct, N98P;D124N)
T1 chain: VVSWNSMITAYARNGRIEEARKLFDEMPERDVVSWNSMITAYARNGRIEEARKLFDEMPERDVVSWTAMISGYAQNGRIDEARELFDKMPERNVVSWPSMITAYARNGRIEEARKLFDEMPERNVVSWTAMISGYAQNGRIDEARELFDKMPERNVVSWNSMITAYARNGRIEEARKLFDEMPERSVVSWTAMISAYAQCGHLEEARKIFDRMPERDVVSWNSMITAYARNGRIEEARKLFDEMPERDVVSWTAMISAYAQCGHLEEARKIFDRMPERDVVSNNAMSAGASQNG

T2: GFP-9S library array, motif 4 ND N98G;D124F (synthetic construct, N98G;D124F)
T2 chain: T1 chain with P98G, N124F

T3: GFP-9S library array, motif 4 ND N98P;D124F (synthetic construct, N98P;D124F)
T3 chain: T1 chain with N124F

T4: GFP-9S library array, motif 4 ND N98R;D124N (synthetic construct, N98R;D124N)
T4 chain: T1 chain with P98R

T5: GFP-9S library array, motif 4 ND N98V;D124A (synthetic construct, N98V;D124A)
T5 chain: T1 chain with P98V, N124A


Key:
Test in all cases: high-throughput RNA pulldown from lysate on Ni-NTA beads; HRP: 50 mM Tris pH 8, 150 mM NaCl, 1 mM beta-mercaptoethanol, 50 ug/ml BSA, 3 ug/ml yeast RNA, 0.5% heparin; ITC and FP: Tris pH 8, 200 mM KCl, 5% glycerol; MST: 50 mM Tris pH 8, 200 mM NaCl, 1 mM DTT, BSA, heparin, 0.05% Tween 20
Conditions in all cases: tags: N-terminal His-eGFP
[1] = molecular target: T1, GFP-9S library array, motif 4 ND …
[2] = molecular target: T2, GFP-9S library array, motif 4 ND …
[3] = molecular target: T3, GFP-9S library array, motif 4 ND …
[4] = molecular target: T4, GFP-9S library array, motif 4 ND …
[5] = molecular target: T5, GFP-9S library array, motif 4 ND …

Binder	Kd ([1]; label: 5' IRDye 800CW)	Kd ([2]; label: 5' IRDye 800CW)	Kd ([3]; label: 5' IRDye 800CW)	Kd ([4]; label: 5' IRDye 800CW)	Kd ([5]; label: 5' IRDye 800CW)	Kd ([1]; label: 5' Cy5)	Kd ([2]; label: 5' Cy5)	Kd ([3]; label: 5' Cy5)	Kd ([4]; label: 5' Cy5)	Kd ([5]; label: 5' Cy5)
AUUAAACGUGA (ssRNA) [IR-rpoA-A]	151 nM	218 nM	245 nM	200 nM	80.7 nM	–	–	–	–	–
AUUAGACGUGA (ssRNA) [Cy5-rpoA-G]	–	–	–	–	–	164 nM	95.6 nM	125 nM	118 nM	74.1 nM
AUUAUACGUGA (ssRNA) [IR-rpoA-U]	136 nM	119 nM	290 nM	95.9 nM	71.8 nM	–	–	–	–	–
AUUACACGUGA (ssRNA) [Cy5-rpoA]	–	–	–	–	–	172 nM	69.1 nM	134 nM	98 nM	64.4 nM
